Test results: publication PMC8222357, “The structure of ORC–Cdc6 on an origin DNA reveals the mechanism of ORC activation by the replication initiator Cdc6” (Nature Communications, 2021)

T1: Orc1, subunit of S. cerevisiae ORC (S. cerevisiae, UniProt P54784 1-914)
T1 construct: Orc1, S. cerevisiae, as the Orc1 chain of m1; Stood in the assay as a subunit of the whole ORC; written on its own for the contacts seen in the structure; source: purified as part of ORC, as described previously with minor modifications
T1 sequence: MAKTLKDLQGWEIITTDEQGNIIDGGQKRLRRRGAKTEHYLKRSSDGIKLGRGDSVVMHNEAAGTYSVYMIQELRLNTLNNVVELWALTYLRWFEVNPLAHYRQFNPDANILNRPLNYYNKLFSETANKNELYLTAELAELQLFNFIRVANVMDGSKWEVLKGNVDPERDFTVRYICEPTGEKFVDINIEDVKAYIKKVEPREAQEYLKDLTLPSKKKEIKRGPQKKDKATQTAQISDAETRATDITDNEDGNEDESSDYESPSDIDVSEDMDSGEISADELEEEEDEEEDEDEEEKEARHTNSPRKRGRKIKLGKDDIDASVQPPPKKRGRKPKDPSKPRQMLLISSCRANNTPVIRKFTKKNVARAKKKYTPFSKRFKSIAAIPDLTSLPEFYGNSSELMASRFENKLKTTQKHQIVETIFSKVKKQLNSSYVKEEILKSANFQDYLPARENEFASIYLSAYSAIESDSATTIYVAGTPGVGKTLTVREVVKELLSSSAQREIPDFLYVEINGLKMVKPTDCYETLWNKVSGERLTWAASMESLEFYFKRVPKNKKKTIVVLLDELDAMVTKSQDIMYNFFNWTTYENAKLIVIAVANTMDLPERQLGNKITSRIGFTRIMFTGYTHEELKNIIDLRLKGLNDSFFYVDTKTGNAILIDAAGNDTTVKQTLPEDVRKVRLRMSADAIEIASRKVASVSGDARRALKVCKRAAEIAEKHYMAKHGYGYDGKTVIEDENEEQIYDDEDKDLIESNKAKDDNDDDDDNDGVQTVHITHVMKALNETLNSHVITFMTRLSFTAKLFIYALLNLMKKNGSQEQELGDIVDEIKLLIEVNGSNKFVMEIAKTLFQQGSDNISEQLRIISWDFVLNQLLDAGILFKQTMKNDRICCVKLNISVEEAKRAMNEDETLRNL

T2: Orc3, subunit of S. cerevisiae ORC (S. cerevisiae, UniProt P54790 1-616)
T2 construct: Orc3, S. cerevisiae, as the Orc3 chain of m1; Stood in the assay as a subunit of the whole ORC; written on its own for the contacts seen in the structure; source: purified as part of ORC, as described previously with minor modifications
T2 sequence: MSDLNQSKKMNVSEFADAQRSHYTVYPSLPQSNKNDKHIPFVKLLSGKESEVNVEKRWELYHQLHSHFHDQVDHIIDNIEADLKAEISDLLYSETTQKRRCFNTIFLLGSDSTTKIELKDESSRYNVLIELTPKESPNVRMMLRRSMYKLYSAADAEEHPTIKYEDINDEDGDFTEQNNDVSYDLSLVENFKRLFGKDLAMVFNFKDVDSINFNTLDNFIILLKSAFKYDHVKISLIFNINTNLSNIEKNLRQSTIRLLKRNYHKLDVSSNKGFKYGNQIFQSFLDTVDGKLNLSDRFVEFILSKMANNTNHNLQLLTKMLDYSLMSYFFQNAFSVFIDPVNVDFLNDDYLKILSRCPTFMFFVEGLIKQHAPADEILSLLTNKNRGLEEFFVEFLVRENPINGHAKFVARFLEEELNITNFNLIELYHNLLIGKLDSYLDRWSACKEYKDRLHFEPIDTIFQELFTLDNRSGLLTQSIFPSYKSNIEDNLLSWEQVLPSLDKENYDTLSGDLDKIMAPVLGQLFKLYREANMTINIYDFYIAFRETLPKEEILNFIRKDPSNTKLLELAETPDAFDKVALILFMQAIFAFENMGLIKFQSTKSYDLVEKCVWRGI

B1: Orc4, subunit of S. cerevisiae ORC (natural protein)
chain: MTISEARLSPQVNLLPIKRHSNEEVEETAAILKKRTIDNEKCKDSDPGFGSLQRRLLQQLYGTLPTDEKIIFTYLQDCQQEIDRIIKQSIIQKESHSVILVGPRQSYKTYLLDYELSLLQQSYKEQFITIRLNGFIHSEQTAINGIATQLEQQLQKIHGSEEKIDDTSLETISSGSLTEVFEKILLLLDSTTKTRNEDSGEVDRESITKITVVFIFDEIDTFAGPVRQTLLYNLFDMVEHSRVPVCIFGCTTKLNILEYLEKRVKSRFSQRVIYMPQIQNLDDMVDAVRNLLTVRSEISPWVSQWNETLEKELSDPRSNLNRHIRMNFETFRSLPTLKNSIIPLVATSKNFGSLCTAIKSCSFLDIYNKNQLSNNLTGRLQSLSDLELAILISAARVALRAKDGSFNFNLAYAEYEKMIKAINSRIPTVAPTTNVGTGQSTFSIDNTIKLWLKKDVKNVWENLVQLDFFTEKSAVGLRDNATAAFYASNYQFQGTMIPFDLRSYQMQIILQELRRIIPKSNMYYSWTQL
notes: Orc4, S. cerevisiae, as the Orc4 chain of m1; Stood in the assay as a subunit of the whole ORC; written on its own for the contacts seen in the structure; source: purified as part of ORC, as described previously with minor modifications
B2: Cdc6 (replication initiator), S. cerevisiae, wild type (natural protein)
chain: MSAIPITPTKRIRRNLFDDAPATPPRPLKRKKLQFTDVTPESSPEKLQFGSQSIFLRTKALLQKSSELVNLNSSDGALPARTAEYEQVMNFLAKAISEHRSDSLYITGPPGTGKTAQLDMIIRQKFQSLPLSLSTPRSKDVLRHTNPNLQNLSWFELPDGRLESVAVTSINCISLGEPSSIFQKIFDSFQDLNGPTLQIKNMQHLQKFLEPYHKKTTFVVVLDEMDRLLHANTSETQSVRTILELFLLAKLPTVSFVLIGMANSLDMKDRFLSRLNLDRGLLPQTIVFQPYTAEQMYEIVIQKMSSLPTIIFQPMAIKFAAKKCAGNTGDLRKLFDVLRGSIEIYELEKRFLLSPTRGSLNSAQVPLTPTTSPVKKSYPEPQGKIGLNYIAKVFSKFVNNNSTRTRIAKLNIQQKLILCTIIQSLKLNSDATIDESFDHYIKAITKTDTLAPLQRNEFLEICTILETCGLVSIKKTKCKGKTKRFVDKIDVDLDMREFYDEMTKISILKPFLH
notes: Cdc6, S. cerevisiae; also called yeast Cdc6; source: purified as described previously, with minor modifications (lysis buffer with 500 mM potassium phosphate)
B3: Orc5, subunit of S. cerevisiae ORC (natural protein)
chain: MNVTTPEVAFREYQTNCLASYISADPDITPSNLILQGYSGTGKTYTLKKYFNANPNLHAVWLEPVELVSWKPLLQAIARTVQYKLKTLYPNIPTTDYDPLQVEEPFLLVKTLHNIFVQYESLQEKTCLFLILDGFDSLQDLDAALFNKYIKLNELLPKDSKINIKFIYTMLETSFLQRYSTHCIPTVMFPRYNVDEVSTILVMSRCGELMEDSCLRKRIIEEQITDCTDDQFQNVAANFIHLIVQAFHSYTGNDIFALNDLIDFKWPKYVSRITKENIFEPLALYKSAIKLFLSTDDNLSENGQGESAITTNRDDLENSQTYDLSIISKYLLIASYICSYLEPRYDASIFSRKTRIIQGRAAYGRRKKKEVNPRYLQPSLFAIERLLAIFQAIFPIQGKAESGSLSALREESLMKANIEVFQNLSELHTLKLIATTMNKNIDYLSPKVRWKVNVPWEIIKEISESVHFNISDYFSDIHE
notes: Orc5, S. cerevisiae, as the Orc5 chain of m1; Stood in the assay as a subunit of the whole ORC; written on its own for the contacts seen in the structure; source: purified as part of ORC, as described previously with minor modifications

Assays:
Assay in all cases: cryo-EM structure; ORC first bound to 85 bp ARS1 origin dsDNA, then Cdc6 added (about 1 μM ORC:1.25 μM DNA:6.4 μM Cdc6), 5 mM ATPγS, 5 mM DTT, on ice; no cross-linking agent; maps at 3.3 and 3.6 Å
Conditions in all cases: both partners purified
[1] = target: T1, Orc1, subunit of S. cerevisiae ORC
[2] = target: T3, origin recognition complex (ORC; Orc1-6), S. cerevisiae (S. cerevisiae, UniProt P54784 1-914; P32833 1-620; P54790 1-616; P54791 1-529; P50874 1-479; P38826 …)
T3 construct: Orc1, S. cerevisiae, subunit of ORC; BAH domain disordered in the map; Orc2, S. cerevisiae, subunit of ORC; WHD flexible and not visible in the map; Orc3, S. cerevisiae, subunit of ORC; Orc4, S. cerevisiae, subunit of ORC; Orc5, S. cerevisiae, subunit of ORC; Orc6, S. cerevisiae, subunit of ORC; TFIIB-A domain disordered in the map; also called yeast ORC; source: purified as described previously, …
T3 sequence (P32833 whole entry, chain 2 of 2, the tested form may be a part): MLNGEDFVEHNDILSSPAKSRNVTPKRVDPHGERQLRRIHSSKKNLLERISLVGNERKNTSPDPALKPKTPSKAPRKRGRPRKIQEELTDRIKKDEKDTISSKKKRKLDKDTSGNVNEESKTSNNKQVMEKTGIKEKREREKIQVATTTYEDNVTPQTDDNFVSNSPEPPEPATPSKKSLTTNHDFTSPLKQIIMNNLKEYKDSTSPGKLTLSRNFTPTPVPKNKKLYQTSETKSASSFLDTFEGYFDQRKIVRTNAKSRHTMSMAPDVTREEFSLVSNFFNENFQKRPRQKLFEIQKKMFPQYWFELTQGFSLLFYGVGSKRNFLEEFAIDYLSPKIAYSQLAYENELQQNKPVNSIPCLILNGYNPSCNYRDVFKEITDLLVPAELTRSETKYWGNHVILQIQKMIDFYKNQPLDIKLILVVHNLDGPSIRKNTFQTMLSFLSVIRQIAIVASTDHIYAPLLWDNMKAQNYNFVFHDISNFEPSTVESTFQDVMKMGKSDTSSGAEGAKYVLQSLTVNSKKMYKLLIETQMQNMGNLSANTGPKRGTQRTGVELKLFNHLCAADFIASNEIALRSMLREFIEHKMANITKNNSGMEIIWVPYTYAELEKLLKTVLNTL
T3 sequence (P38826 whole entry, chain 6 of 2, the tested form may be a part): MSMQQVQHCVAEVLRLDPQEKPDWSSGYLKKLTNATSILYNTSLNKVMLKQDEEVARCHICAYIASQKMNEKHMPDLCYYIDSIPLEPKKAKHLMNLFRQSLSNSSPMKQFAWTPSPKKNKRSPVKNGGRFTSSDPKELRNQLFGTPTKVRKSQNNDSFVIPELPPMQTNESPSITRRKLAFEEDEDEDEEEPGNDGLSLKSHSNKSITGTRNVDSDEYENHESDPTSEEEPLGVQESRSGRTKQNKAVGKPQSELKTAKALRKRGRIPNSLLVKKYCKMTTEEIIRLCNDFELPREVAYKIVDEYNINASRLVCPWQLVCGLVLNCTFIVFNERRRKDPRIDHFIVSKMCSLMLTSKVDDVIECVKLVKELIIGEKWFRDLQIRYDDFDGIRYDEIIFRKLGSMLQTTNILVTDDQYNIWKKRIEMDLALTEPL

[3] = target: T2, Orc3, subunit of S. cerevisiae ORC
[4] = target: B1

| binding result [1] | binding result [2] | binding result [3] | binding result [4] | Binder |
| --- | --- | --- | --- | --- |
| binds | – | – | – | B1 |
| binds | binds | – | – | B2 |
| – | – | binds | binds | B3 |
